In publication PMC2789664 one finds binding result and Kd data, which are given here for 7 molecules.

Data set [1] concerns the target T1, GAPDH wild type (Homo sapiens, UniProt P04406 1-335). Put plainly: competition EMSA. (In general: In EMSA bound probe runs differently from free probe, usually more slowly.)
For data set [2], the target named is T1, GAPDH wild type. In words: competition EMSA. The source holds these as a separate data set.
For data set [3], the target named is T1, GAPDH wild type. In words: EMSA.
Data set [4] has as its target T1, GAPDH wild type. Put plainly: competition EMSA. The source holds these as a separate data set.

Read-outs that look alike come from different tables or passages of the source.

T1 sequence (P04406 whole entry): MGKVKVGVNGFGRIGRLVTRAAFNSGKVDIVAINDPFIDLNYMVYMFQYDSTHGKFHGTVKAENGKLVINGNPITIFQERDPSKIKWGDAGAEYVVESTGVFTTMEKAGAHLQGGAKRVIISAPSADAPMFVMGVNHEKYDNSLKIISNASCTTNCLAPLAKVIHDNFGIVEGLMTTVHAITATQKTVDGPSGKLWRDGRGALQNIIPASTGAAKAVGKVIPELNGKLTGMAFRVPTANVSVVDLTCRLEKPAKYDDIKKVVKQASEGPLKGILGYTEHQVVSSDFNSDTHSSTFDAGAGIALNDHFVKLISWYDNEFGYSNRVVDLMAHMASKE

B1: ss-(TTAGGC)3 (ssDNA)
DNA: TTAGGCTTAGGCTTAGGC
For B1, the binding result in the data set with GAPDH wild type [1] is recorded as “no binding”.

B2: ss-(ATAGGG)3 (ssDNA)
DNA: ATAGGGATAGGGATAGGG
Take B2: the binding result with GAPDH wild type [1] is “no binding”.

B3: control 18-mer (ssDNA)
DNA: AGATGTAGCAATAGTAGT
As for B3, the binding result with GAPDH wild type [2] is “no binding”.

B4: ss-(AGGGTT)3 (ssDNA)
DNA: AGGGTTAGGGTTAGGGTT
For the molecule B4, binding with GAPDH wild type [3] was put at a Kd of 45 ± 5 nM.

B5: ss-(TTTGGG)3 (ssDNA)
DNA: TTTGGGTTTGGGTTTGGG
Take B5: the binding result in the data set with GAPDH wild type [4] was “binds”.

B6: ss-(TTAGGG)3 (ssDNA)
DNA: TTAGGGTTAGGGTTAGGG
B6: the Kd (in general, the constant that tells how readily two partners part at equilibrium) in the data set with GAPDH wild type [3] came to 70 ± 5 nM.

B7: ss-(TTAGCG)3 (ssDNA)
DNA: TTAGCGTTAGCGTTAGCG
As for B7, the binding result with GAPDH wild type [1] is “no binding”.
